This note sets out measurements from PMC7507306, “Highly active rubiscos discovered by systematic interrogation of natural sequence diversity” (The EMBO Journal, 2020).

Assay in all cases: SEC; analytical gel filtration of the purified rubisco; oligomer state read from the elution; conditions not shown (Appendix)
Series [1] has as its target Acidithiobacillus ferrooxidans rubisco (form-II) (Acidithiobacillus ferrooxidans).
Series [2] deals with Gallionella sp. rubisco (form-II) (Gallionella sp.).
Series [3] has as its target Sulfurivirga caldicuralii rubisco (form-II) (Sulfurivirga caldicuralii).
The target in series [4] is Zetaproteobacteria_53_45 rubisco (form-II) (Zetaproteobacteria_53_45).
For series [5], the target named is Zetaproteobacterium rubisco (form-II) (Zetaproteobacterium).
Series [6] concerns the molecule itself.

Usually stoichiometry N stands for a count of units in the complex or per binding partner. As for “Acidithiobacillus ferrooxidans rubisco (form-II) (enzyme)”, in series [1], the stoichiometry N came out at 6.

As for “Gallionella sp. rubisco (form-II) (enzyme)”, the stoichiometry N in series [2] was found to be 2. In turn, “Sulfurivirga caldicuralii rubisco (form-II) (enzyme)” registered a stoichiometry N in series [3] of 4. Turning to “Zetaproteobacteria_53_45 rubisco (form-II) (enzyme)”, the stoichiometry N in series [4] came to 2. In turn, “Zetaproteobacterium rubisco (form-II) (enzyme)” had a stoichiometry N in series [5] of 2.

B1: Hydrogenovibrio marinus rubisco (form-II) (enzyme, UniProt Q59462 1-463, looked up)
chain: MDQSNRYADLTLTEEKLVADGNHLLVAYRLKPAAGYGFLEVAAHVAAESSTGTNVEVSTTDDFTRGVDALVYEIDEAAFGDKGGLMKIAYPVDLFDPNLIDGHYNVSHMWSLILGNNQGMGDHEGLRMLDFLVPEKMVKRFDGPATDISDLWKVLGRPEVDGGYIAGTIIKPKLGLRPEPFAKACYDFWLGGDFIKNDEPQANQNFCPMEVVIPKVAEAMDRAQQATGQAKLFSANVTADFHEEMIKRGEYVLGEFAKYGNEKHVAFLVDGFVTGPAGVTTSRRAFPDTYLHFHRAGHGAVTSYKSPMGMDPLCYMKLARLMGASGIHTGTMGYGKMEGHNDERVLAYMLERDECQGPYFYQKWYGMKPTTPIISGGMDALRLPGFFENLGHGNVINTCGGGSFGHIDSPAAGGISLGQAYACWKTGAEPIEAPREFARAFESFPGDADKIFPGWREKLGVHK
notes: form-II rubisco large subunit from Hydrogenovibrio marinus; scarless tag cleavage gives the native rubisco; source: E. coli BL21(DE3), purified (nickel magnetic beads, eluted by on-bead cleavage of the SUMO tag with bdSENP1); not shown: 14xHis, N-terminal, cleaved; bdSUMO, N-terminal, cleaved
With B1, the “stoichiometry N” value in series [6] stood at 2.
